The source of these data is paper PMC8646926 (Advanced Biology, 2021).

This data set deals with the molecule itself. Description: 15N-1H HSQC NMR (line broadening and signal loss).

B1: SARS-CoV-2 Nsp9, wild type, purified recombinant (natural protein, UniProt P0DTD1 4141-4253, looked up)
chain: NNELSPVALRQMSCAAGTTQTACTDDNALAYYNTTKGGRFVLALLSDLQDLKWARFPKSDGTGTIYTELEPPCRFVTDTPKGPKVKYLYFIKGLNNLNRGMVLGSLAATVRLQ
modifications: 15N or 13C,15N isotope labelling in the NMR experiments
For the protein B1, the binding result is recorded as “binds”.
